Measurements reported in paper PMC7902612 (2021).

Target: GST-BRCA1-N (N-terminal of BRCA1, 1-147 aa) (human, UniProt P38398 1-147)
Experiment: MST

Chain of GST-BRCA1-N (N-terminal of BRCA1, 1-147 aa) (P38398 1-147): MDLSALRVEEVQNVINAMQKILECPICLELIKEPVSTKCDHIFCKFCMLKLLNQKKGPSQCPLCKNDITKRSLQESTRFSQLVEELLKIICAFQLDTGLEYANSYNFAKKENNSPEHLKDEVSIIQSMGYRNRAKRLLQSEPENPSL

Kd: 1340 nM
B1: GFP-BARD1^WT (natural protein)
chain: MPDNRQPRNRQPRIRSGNEPRSAPAMEPDGRGAWAHSRAALDRLEKLLRCSRCTNILREPVCLGGCEHIFCSNCVSDCIGTGCPVCYTPAWIQDLKINRQLDSMIQLCSKLRNLLHDNELSDLKEDKPRKSLFNDAGNKKNSIKMWFSPRSKKVRYVVSKASVQTQPAIKKDASAQQDSYEFVSPSPPADVSERAKKASARSGKKQKKKTLAEINQKWNLEAEKEDGEFDSKEESKQKLVSFCSQPSVISSPQINGEIDLLASGSLTESECFGSLTEVSLPLAEQIESPDTKSRNEVVTPEKVCKNYLTSKKSLPLENNGKRGHHNRLSSPISKRCRTSILSTSGDFVKQTVPSENIPLPECSSPPSCKRKVGGTSGRKNSNMSDEFISLSPGTPPSTLSSSSYRRVMSSPSAMKLLPNMAVKRNHRGETLLHIASIKGDIPSVEYLLQNGSDPNVKDHAGWTPLHEACNHGHLKVVELLLQHKALVNTTGYQNDSPLHDAAKNGHVDIVKLLLSYGASRNAVNIFGLRPVDYTDDESMKSLLLLPEKNESSSASHCSVMNTGQRRDGPLVLIGSGLSSEQQKMLSELAVILKAKKYTEFDSTVTHVVVPGDAVQSTLKCMLGILNGCWILKFEWVKACLRRKVCEQEEKYEIPEGPRRSRLNREQLLPKLFDGCYFYLWGTFKHHPKDNLIKLVTAGGGQILSRKPKPDSDVTQTINTVAYHARPDSDQRFCTQYIIYEDLCNYHPERVRQGKVWKAPSSWFIDCVMSFELLPLDS
